Data as given in the supplement of paper PMC10724198.
± gives the standard deviation of the averaged measurements.

Test system: Saccharomyces cerevisiae
Test: protein stability index of tFT-peptide fusion (C-terminal peptide) (PSI (0-1 scale)); higher = more stable (slower turnover)
Conditions: genetic background: wild type; temperature: 30 C
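Also: PSI is a weighted mean of sequencing reads over stability bins, variants kept only with over 10 reads, mCherry proximal and sfGFP distal, peptide attached via GGGS linker.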

Sequence PPPPLPPCTPAT has a protein stability index of 0.6797 ± 0.0047.
Sequence MVGLTTEFGSDG has a protein stability index of 0.667 ± 0.015.
For ICWSTALDASFG, the protein stability index was 0.725 ± 0.024.
Work on LVTGRVASPPLG yielded a protein stability index of 0.696 ± 0.043.
EARFLWLTFLFG was tested, and the protein stability index was 0.546 ± 0.068.
In the case of HSSHPRPHRTLI, the protein stability index is reported as 0.661 ± 0.012.
APLPPRSALVGL was tested, and the protein stability index was 0.6759 ± 0.0011.
IVPPALRSDGRR showed a protein stability index of 0.668 ± 0.035.
Work on HSAPDLPPLPRV yielded a protein stability index of 0.711 ± 0.02.
GRLRGGGPVAAR was tested, and the protein stability index was 0.692 ± 0.053.
KATIRRGGKKEK showed a protein stability index of 0.682 ± 0.014.
In the case of WAKRERRNEGRR, the protein stability index is reported as 0.71 ± 0.011.
Sequence VGIQQSVVVRLE has a protein stability index of 0.6685 ± 0.0034.
Work on GVVGDGGRLSGD yielded a protein stability index of 0.667 ± 0.022.
KKKKKNKKKKKK gave a protein stability index of 0.705 ± 0.046.
DCFSFVASSSFC gave a protein stability index of 0.7696 ± 0.004.
For RPAVSCYTGGDH, the protein stability index was 0.7083 ± 0.0056.
LPRPPPRYLPPL gave a protein stability index of 0.711 ± 0.059.
With CILYTGYDLGNV the protein stability index was 0.7 ± 0.021.
Work on GCDELGGRRFGR yielded a protein stability index of 0.7207 ± 0.0051.
With KAGGGEGRDAWG the protein stability index was 0.667 ± 0.049.
Sequence RVIEWHEEKLRV has a protein stability index of 0.783 ± 0.017.
TGKQNRYVKKEK gave a protein stability index of 0.6955 ± 0.0031.
Work on GACWRDSHSGGD yielded a protein stability index of 0.683 ± 0.023.
Work on PPTPPCTSSPAR yielded a protein stability index of 0.739 ± 0.084.
Work on PLSPPPRPPPSP yielded a protein stability index of 0.654 ± 0.066.
VKRSGSDGALHR gave a protein stability index of 0.685 ± 0.021.
For RGRKEQSKKKKE, the protein stability index was 0.647 ± 0.13.
Sequence RCVFGFGGVVVV has a protein stability index of 0.622 ± 0.073.
Sequence ERARSRGGGGCV has a protein stability index of 0.632 ± 0.046.
With LLFSRVDFSSPL the protein stability index was 0.804 ± 0.098.
For EFFSFPLTPYAL, the protein stability index was 0.818 ± 0.0035.
Sequence RCAWSEVFEGCG has a protein stability index of 0.71 ± 0.021.
For CRAAAGMVVWHG, the protein stability index was 0.6835 ± 0.0056.
For ARSRPSILSGPE, the protein stability index was 0.689 ± 0.062.
For FKLVGRHLHSFD, the protein stability index was 0.652 ± 0.06.
AQCAFIKAGVTW showed a protein stability index of 0.686 ± 0.051.
CLFLRLSPSCSR showed a protein stability index of 0.686 ± 0.04.
In the case of SLLPLSTPPASP, the protein stability index is reported as 0.624 ± 0.0079.
APSPLLPPHSPP gave a protein stability index of 0.612 ± 0.043.
With HLKRFLQVHARL the protein stability index was 0.82 ± 0.075.
PLPPPPPPPPRL gave a protein stability index of 0.678 ± 0.0073.
Sequence TSIDIEWYNSLM has a protein stability index of 0.589 ± 0.026.
Work on AILSTSHSPWNS yielded a protein stability index of 0.737 ± 0.053.
With PSSPPSLPSPLP the protein stability index was 0.691 ± 0.065.
Work on KCGLQRFREAIY yielded a protein stability index of 0.61 ± 0.0084.
For GRRGCSGGLKGL, the protein stability index was 0.675 ± 0.039.
Sequence PTPPLPLPRPLP has a protein stability index of 0.688 ± 0.037.
Sequence PPPPPPPPAPLP has a protein stability index of 0.708 ± 0.089.
Sequence WGGGRGLRGRWG has a protein stability index of 0.694 ± 0.057.
Work on CAPPSSPCLCSI yielded a protein stability index of 0.701 ± 0.064.
DGRLNVCCYPSC gave a protein stability index of 0.689 ± 0.15.
With ALFTFFSARLTR the protein stability index was 0.748 ± 0.044.
QPALGNTNKYKN was tested, and the protein stability index was 0.676 ± 0.049.
AGWKGGTSRGER showed a protein stability index of 0.6618 ± 0.0053.
Work on KKKKKLKERRKI yielded a protein stability index of 0.668 ± 0.019.
GGGARCGLGGRM gave a protein stability index of 0.7 ± 0.053.
PPPPPPLFPPCP gave a protein stability index of 0.659 ± 0.11.
SARSAARRWVRR gave a protein stability index of 0.694 ± 0.026.
FGTSLLPLPPPD showed a protein stability index of 0.601 ± 0.025.
NLVSCFSSCGSV was tested, and the protein stability index was 0.628 ± 0.028.
Sequence GVVVLGRRMGAG has a protein stability index of 0.6441 ± 0.0049.
With YLVRENLFSRLV the protein stability index was 0.466 ± 0.07.
LAPPYPSSASSH showed a protein stability index of 0.688 ± 0.022.
In the case of PPFVPGEVRRTV, the protein stability index is reported as 0.6867 ± 0.0036.
Work on LTAKDSRGLFRP yielded a protein stability index of 0.706 ± 0.012.
Work on LLFYSVPLSSSF yielded a protein stability index of 0.655 ± 0.072.
In the case of EFPSGCSSVIVA, the protein stability index is reported as 0.655 ± 0.049.
With KQMRIEYKTRNI the protein stability index was 0.604 ± 0.015.
In the case of EVDRGSNWEGRL, the protein stability index is reported as 0.66 ± 0.011.
For RKKRNKTKIEKR, the protein stability index was 0.719 ± 0.021.
YQGERGAIGVIF gave a protein stability index of 0.605 ± 0.013.
With PRLVFSVSSLGL the protein stability index was 0.7 ± 0.038.
For ASSRPQRKSGKR, the protein stability index was 0.77 ± 0.0086.
Sequence LTVLGSGNLTRS has a protein stability index of 0.729 ± 0.029.
Sequence SSPSSFLTLLFI has a protein stability index of 0.621 ± 0.069.
With LSGYTLRRIISQ the protein stability index was 0.704 ± 0.063.
For PLCPPPLPTPPP, the protein stability index was 0.5849 ± 0.0028.
Sequence FALTHSRSPSTS has a protein stability index of 0.799 ± 0.1.
In the case of LAPPPAAPRFCL, the protein stability index is reported as 0.652 ± 0.008.
In the case of GVSGGFVGSSGG, the protein stability index is reported as 0.62 ± 0.024.
LPLSLPTPPALD was tested, and the protein stability index was 0.716 ± 0.075.
PFSIVRRSSFAP was tested, and the protein stability index was 0.659 ± 0.082.
For PTDVVCVSGHGS, the protein stability index was 0.748 ± 0.076.
Work on PSPPVRPPLPPP yielded a protein stability index of 0.652 ± 0.15.
For RRGDMSEGEREE, the protein stability index was 0.672 ± 0.052.
With IKREATNASEPN the protein stability index was 0.686 ± 0.057.
Work on RWWRLRSGGGRR yielded a protein stability index of 0.707 ± 0.017.
For KKKIKKKSIKKT, the protein stability index was 0.7074 ± 0.0044.
YGTGNGRRTYFD was tested, and the protein stability index was 0.735 ± 0.04.
DGPGFNVCLRCK showed a protein stability index of 0.708 ± 0.017.
GPSFVVTVGNGG showed a protein stability index of 0.686 ± 0.02.
GGWCWGWGPGSG was tested, and the protein stability index was 0.687 ± 0.056.
Work on LWVSSGASCFIL yielded a protein stability index of 0.7239 ± 0.0039.
SLGVPVVWGLWI showed a protein stability index of 0.744 ± 0.032.
Work on RFPPWVSSIFAF yielded a protein stability index of 0.494 ± 0.0082.
Sequence GGGGGKAGSHLG has a protein stability index of 0.632 ± 0.01.
With CWVRGLEYCSIW the protein stability index was 0.676 ± 0.028.
In the case of SWLRPTCLDLYF, the protein stability index is reported as 0.76 ± 0.029.
In the case of PRPPPPRPPFST, the protein stability index is reported as 0.717 ± 0.01.
In the case of KRFQDRPRPGAH, the protein stability index is reported as 0.687 ± 0.044.
In the case of QGRLRLSLLVSG, the protein stability index is reported as 0.526 ± 0.0048.
PLPPPRSSPVSS showed a protein stability index of 0.658 ± 0.04.
With PVSRSVHIEDKR the protein stability index was 0.727 ± 0.052.
For SIGYDLFTKDKI, the protein stability index was 0.789 ± 0.13.
GYILSFPSVGGW gave a protein stability index of 0.724 ± 0.049.
In the case of PLPPPPPPPRSP, the protein stability index is reported as 0.718 ± 0.077.
In the case of RKKKSNLMDDDD, the protein stability index is reported as 0.696 ± 0.031.
In the case of IINKRKKKKDKG, the protein stability index is reported as 0.644 ± 0.019.
With QAVQTLTAETKH the protein stability index was 0.63 ± 0.051.
Sequence SSPRANAYASCP has a protein stability index of 0.726 ± 0.16.
For PVPPAPASPPTG, the protein stability index was 0.742 ± 0.06.
In the case of AHTPGTHLGRKT, the protein stability index is reported as 0.71 ± 0.0082.
In the case of TVPRSPPSPPLT, the protein stability index is reported as 0.7 ± 0.021.
Work on GKFVEVVRFWSV yielded a protein stability index of 0.721 ± 0.074.
With RPQARAQRRQAC the protein stability index was 0.583 ± 0.034.
With GRGGLGWWEWDR the protein stability index was 0.7462 ± 0.0067.
FPPLLFPPTPTR gave a protein stability index of 0.842 ± 0.027.
For CRRPPWRFSFPF, the protein stability index was 0.767 ± 0.021.
GMGLWCLSGLFP showed a protein stability index of 0.7131 ± 0.0067.
Sequence PPPPPPATPPPS has a protein stability index of 0.681 ± 0.045.
QEPDARYGPGRT gave a protein stability index of 0.692 ± 0.12.
With KWCQSNNIVKRT the protein stability index was 0.7 ± 0.011.
PPLLPPPHPFPP showed a protein stability index of 0.6656 ± 0.0053.
With ARCLTGFYSFTF the protein stability index was 0.794 ± 0.019.
In the case of WSRSGGGEKYGV, the protein stability index is reported as 0.69 ± 0.0094.
GLIVGLLGVSGF gave a protein stability index of 0.591 ± 0.0062.
YFCGARSVGPGD showed a protein stability index of 0.717 ± 0.035.
In the case of QAVVGRVRLRGE, the protein stability index is reported as 0.6775 ± 0.0017.
Work on DTLFNRFLHTSI yielded a protein stability index of 0.69 ± 0.046.
Sequence KQKKTKKTKKQN has a protein stability index of 0.647 ± 0.044.
TVIWNSLRNCKF gave a protein stability index of 0.819 ± 0.15.
For LCVRFFGVKWAF, the protein stability index was 0.594 ± 0.0095.
RRREGGQGERGK was tested, and the protein stability index was 0.694 ± 0.087.
ALPPIARPPPRV was tested, and the protein stability index was 0.733 ± 0.029.
RPSLPPRSPPPS gave a protein stability index of 0.767 ± 0.069.
Work on FCWVVFHSGISS yielded a protein stability index of 0.713 ± 0.085.
Work on PPALPPTGHPPF yielded a protein stability index of 0.709 ± 0.013.
In the case of GLMRDKEMRMPK, the protein stability index is reported as 0.68 ± 0.036.
KGMEWEKGYKRL gave a protein stability index of 0.838 ± 0.23.
FLDPFLTRRCVF gave a protein stability index of 0.694 ± 0.055.
In the case of SCSGTIGVYENP, the protein stability index is reported as 0.684 ± 0.024.
LPPPSPPSSAPP was tested, and the protein stability index was 0.734 ± 0.049.
SHESRPNLGCIY gave a protein stability index of 0.678 ± 0.026.
Work on REYGVKRIEIKQ yielded a protein stability index of 0.682 ± 0.04.
Sequence GGGRFRRDRTYE has a protein stability index of 0.712 ± 0.028.
